From patent US20180162928A1 (Janssen / Centocor, published 2018)
Where two headings read alike, the source gives them in different places.

Assays:
Assay in all cases: ELISA, lysate on plate-bound antigen
[1] = target: unrelated Fc-fused recombinant protein
[2] = target: T1, recombinant biotinylated PD-L1 (rhPD-L1/Fc Chimera, R&D Systems 156-B7) (human, UniProt Q9NZQ7 19-238, biotinylated (sites not given))
T1 construct: Bought Fc chimera; also called human PD-L1
Procedure, shortened: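 On streptavidin plates coated with biotinylated PD-L1 (unrelated Fc-fusion protein and HSA as negative controls), diluted lysate was applied for 1 h. Bound FN3 domains detected with HRP-conjugated anti-FN3 antibody and POD substrate.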

[3] = target: human serum albumin (human) (UniProt P02768)
[4] = target: unrelated Fc-fused recombinant protein; remark: listed apart in the source

T1 sequence (Q9NZQ7 19-238, change not shown): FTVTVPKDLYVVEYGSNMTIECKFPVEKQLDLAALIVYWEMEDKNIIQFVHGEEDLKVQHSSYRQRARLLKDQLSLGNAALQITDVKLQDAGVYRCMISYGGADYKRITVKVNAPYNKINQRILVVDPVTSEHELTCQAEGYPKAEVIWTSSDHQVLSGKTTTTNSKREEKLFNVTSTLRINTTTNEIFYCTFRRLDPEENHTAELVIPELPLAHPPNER
human serum albumin (human), sequence (P02768 25-609 limits assumed): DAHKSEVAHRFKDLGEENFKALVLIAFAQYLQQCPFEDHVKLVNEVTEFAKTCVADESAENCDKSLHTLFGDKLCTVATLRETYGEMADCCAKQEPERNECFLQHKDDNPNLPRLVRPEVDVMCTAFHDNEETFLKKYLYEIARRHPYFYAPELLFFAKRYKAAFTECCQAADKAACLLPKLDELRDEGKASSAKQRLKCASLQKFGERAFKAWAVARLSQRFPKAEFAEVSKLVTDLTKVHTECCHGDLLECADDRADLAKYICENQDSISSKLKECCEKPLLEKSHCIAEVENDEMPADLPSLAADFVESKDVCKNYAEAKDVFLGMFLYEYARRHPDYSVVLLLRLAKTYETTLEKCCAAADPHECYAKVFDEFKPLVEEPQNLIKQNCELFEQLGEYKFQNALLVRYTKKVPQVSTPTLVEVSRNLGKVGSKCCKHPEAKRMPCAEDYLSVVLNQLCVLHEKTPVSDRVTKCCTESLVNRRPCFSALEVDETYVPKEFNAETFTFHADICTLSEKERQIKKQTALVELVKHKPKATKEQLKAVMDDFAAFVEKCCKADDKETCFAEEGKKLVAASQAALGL

Binder	ELISA Fc Control (RSU) [1] [RSU]	ELISA PD-L1 Fc (RSU) [2] [RSU]	ELISA HSA (RSU) [3] [RSU]	ELISA Fc Control (RSU) [4] [RSU]
ISOP194AR9P1H10 (designed binder, not shown: small tags and cut ends, FN3 domain; E. coli lysate in the ELISA) LPAPKNLVISRVTEDSARLSWPAHYHSAFFDSFLIQYQESEKVGEAIVLTVPGSERSYDLTGLKPGTEYTVSIYGVYQRKVEFHSNPLSAIFTT	4400	5.21e+06		
ISOP194BR9P1A9 (designed binder, not shown: small tags and cut ends, FN3 domain; E. coli lysate in the ELISA) LPAPKNLVVSRVTEDSARLSWFNADEEYFDSFLIQYQESEKVGEAIVLTVPGSERSYDLTGLKPGTEYTVSIYGVYDRKVKFVQSNPLSAIFTT	2320	1.9e+07		
ISOP121ER5P1E7 (designed binder, not shown: small tags and cut ends, FN3 domain; E. coli lysate in the ELISA) LPAPKNLVVSRVTEDSARLSWTAPDAAFDSFTIGYTETPPRGEAIVLTVPGSERSYDLTGLKPGTKYYVSILGVKGGLGSWPLSAIFTT		251000	560	480
ISOP121BR5P1C3 (designed binder, not shown: small tags and cut ends, FN3 domain; E. coli lysate in the ELISA) LPAPKNLVVSRVTEDSARLSWASARDYFDSFLIQYQESEKVGEAIVLTVPGSERSYDLTGLKPGTEYTVSIYGVLAIAQITHWFSNPLSAIFTT		177000	480	640
